This note sets out measurements from publication PMC6746776, “TA*p63 and GTAp63 achieve tighter transcriptional regulation in quality control by converting an inhibitory element into an additional transactivation domain” (Cell Death & Disease, 2019).

Data set [1] deals with the molecule itself. Kind of data set: SEC; in vitro translated protein in rabbit reticulocyte lysate on Superose 6 3.2/300, 50 mM sodium phosphate pH 7.8, 100 mM NaCl, 4 °C; fractions analysed by western blot. In general terms: SEC sorts molecules by how far they enter the pores of the column.
In data set [2] the target is TAp63α FWL. The data set is described as above.
Data set [3] concerns the molecule itself. Kind of data set: native gel or EMSA; Blue-Native PAGE (3-12%) of Sum159 lysate, endogenous protein, cells treated with 10 µM doxorubicin for different periods of time. Background: In EMSA bound probe runs differently from free probe, usually more slowly.
Data set [4] concerns the molecule itself. The data set is described as follows: native gel or EMSA; Blue-Native PAGE (3-12%) of Sum159 lysate, endogenous protein, before doxorubicin.
For data set [5], the target named is GTA-GTA* peptide (1′-37′) (not stated (isoform of humans and great apes)). Kind of data set: fluorescence polarisation; fluorescence anisotropy; 100 nM N-terminally fluorescein-labelled peptide, increasing concentration of Taz2; 22 °C; two site specific binding fit. (In fluorescence polarisation assays a small probe gives low polarisation when free and higher when bound to something large.)

The target of data set [6] is T1, TA*-GTA* peptide (1*-39*) (fluorescein on the N-terminus).
T1 chain: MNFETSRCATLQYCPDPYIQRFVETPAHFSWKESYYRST
Described as above. Particulars: both partners purified.

B1: TA*p63α FWL (natural protein, UniProt Q9H3D4-1 1-680, looked up)
chain: MNFETSRCATLQYCPDPYIQRFVETPAHFSWKESYYRSTMSQSTQTNEFLSPEVAQHIADFAEQPICSVQPIDLNFVDEPSEDGATNKIEISMDCIRMQDSDLSDPMWPQYTNLGLLNSMDQQIQNGSSSTSPYNTDHAQNSVTAPSPYAQPSSTFDALSPSPAIPSNTDYPGPHSFDVSFQQSSTAKSATWTYSTELKKLYCQIAKTCPIQIKVMTPPPQGAVIRAMPVYKKAEHVTEVVKRCPNHELSREFNEGQIAPPSHLIRVEGNSHAQYVEDPITGRQSVLVPYEPPQVGTEFTTVLYNFMCNSSCVGGMNRRPILIIVTLETRDGQVLGRRCFEARICACPGRDRKADEDSIRKQQVSDSTKNGDGTKRPFRQNTHGIQMTSIKKRRSPDDELLYLPVRGRETYEMLLKIKESLELMQYLPQHTIETYRQQQQQQHQHLLQKQTSIQSPSSYGNSSPPLNKMNSMNKLPSVSQLINPQQRNALTPTTIPDGMGANIPMMGTHMPMAGDMNGLSPTQALPPPLSMPSTSHCTPPPPYPTDCSIVSFLARLGCSSCLDYFTTQGLTTIYQIEHYSMDDLASLKIPEQFRHAIWKGILDHRQLHEFSSPSHLLRTPSSASTVSVGSSETRGERVIDAVRFTLRQTISFPPRDEWNDFNFDMDARRNKQQRIKEEGE
notes: TA*p63α: another translation start site adds 39 aa N-terminally to TAp63α; also called FWL mutant of TA*p63α; source: in vitro translated (rabbit reticulocyte lysate); not shown: myc, N-terminal, kept
One may read the stoichiometry N as a count of units in the complex or per binding partner. As to B1, the “stoichiometry N” value in data set [1] worked out at 2; in data set [2] it was 4.

B2: TA*p63α (natural protein, human (endogenous in Sum159), UniProt Q9H3D4-1 1-680, looked up)
chain: MNFETSRCATLQYCPDPYIQRFVETPAHFSWKESYYRSTMSQSTQTNEFLSPEVFQHIWDFLEQPICSVQPIDLNFVDEPSEDGATNKIEISMDCIRMQDSDLSDPMWPQYTNLGLLNSMDQQIQNGSSSTSPYNTDHAQNSVTAPSPYAQPSSTFDALSPSPAIPSNTDYPGPHSFDVSFQQSSTAKSATWTYSTELKKLYCQIAKTCPIQIKVMTPPPQGAVIRAMPVYKKAEHVTEVVKRCPNHELSREFNEGQIAPPSHLIRVEGNSHAQYVEDPITGRQSVLVPYEPPQVGTEFTTVLYNFMCNSSCVGGMNRRPILIIVTLETRDGQVLGRRCFEARICACPGRDRKADEDSIRKQQVSDSTKNGDGTKRPFRQNTHGIQMTSIKKRRSPDDELLYLPVRGRETYEMLLKIKESLELMQYLPQHTIETYRQQQQQQHQHLLQKQTSIQSPSSYGNSSPPLNKMNSMNKLPSVSQLINPQQRNALTPTTIPDGMGANIPMMGTHMPMAGDMNGLSPTQALPPPLSMPSTSHCTPPPPYPTDCSIVSFLARLGCSSCLDYFTTQGLTTIYQIEHYSMDDLASLKIPEQFRHAIWKGILDHRQLHEFSSPSHLLRTPSSASTVSVGSSETRGERVIDAVRFTLRQTISFPPRDEWNDFNFDMDARRNKQQRIKEEGE
notes: also called endogenous TA*p63α of Sum159 cells; source: endogenous, Sum159 lysate
Regarding B2, the figures for the “stoichiometry N” value in data set [3] and in data set [4] were 4 and 2, respectively.

B3: p300 Taz2 domain (domain or fragment)
chain: ATQSPGDSRRLSIQRCIQSLVHACQCRNANCSLPSCQKMKRVVQHTKGCKRKTNGGCPICKQLIALCCYHAKHCQENKCPVPFCLNIKQK
By Kd is commonly meant a measure of binding affinity in units of concentration. Take B3: the Kd in data set [5] came out at 4.79 µM; in data set [6], 13.2 ± 0.93 µM.
